B1: Histone-lysine N-methyltransferase SETD7 (Homo sapiens), Q8WTS6 (parent)
chain: MDSDDEMVEEAVEGHLDDDGLPHGFCTVTYSSTDRFEGNFVHGEKNGRGKFFFFDGSTLEGYYVDDALQGQGVYTYEDGGVLQGTYVDGELNGPAQEYDTDGRLIFKGQYKDNIRHGVCWIYYPDGGSLVGEVNEDGEMTGEKIAYVYPDERTALYGKFIDGEMIEGKLATLMSTEEGRPHFELMPGNSVYHFDKSTSSCISTNALLPDPYESERVYVAESLISSAGEGLFSKVAVGPNTVMSFYNGVRITHQEVDSRDWALNGNTLSLDEETVIDVPEPYNHVSKYCASLGHKANHSFTPNCIYDMFVHPRFGPIKCIRTLRAVEADEELTVAYGYDHSPPGKSGPEAPEWYQVELKAFQATQQK

Variants of: B1
Conditions: with h31_human H3C1, P68431

Variant	effect of a mutation on the interaction
MDSDDEMVEEAVEGHLDDDGLPHGFCTVTYSSTDRFEGNFVHGEKNGRGKFFFFDGSTLEGYYVDDALQGQGVYTYEDGGVLQGTYVDGELNGPAQEYDTDGRLIFKGQYKDNIRHGVCWIYYPDGGSLVGEVNEDGEMTGEKIAYVYPDERTALYGKFIDGEMIEGKLATLMSTEEGRPHFELMPGNSVYHFDKSTSSCISTNALLPDPYESERVYVAESLISSAGEGLFSKVAVGPNTVMSFANGVRITHQEVDSRDWALNGNTLSLDEETVIDVPEPYNHVSKYCASLGHKANHSFTPNCIYDMFVHPRFGPIKCIRTLRAVEADEELTVAYGYDHSPPGKSGPEAPEWYQVELKAFQATQQK [Y245A]	decreasing interaction

From IntAct's records for PubMed 12540855
